From patent US20190352411A1 (ALLIGATOR BIOSCIENCE, published 2019)

Assays:
[1] = target: T1, human CD137 on transfected CHO cells (CHO-huCD137) (human); assay: flow cytometry on CHO cells transfected with human CD137, PE anti-hIgG detection, MFI normalised 0-100% for each antibody
T1 construct: domain: transmembrane and intracellular part
Description: (§1) Binding and EC50 was determined using flow cytometric of CHO cells transfected with human CD137, cynomolgus CD137 or empty vector. The extracellular part of human or cynomolgus CD137 was fused to the transmembrane and intracellular part of human CD40 and cloned into pcDNA3.1. The vector was subsequently stably transfected into CHO cells. […] CD137-transfected and empty vector-transfected cells were incubated with CD137 antibodies for at least 1 h at 4° C. to saturate the binding. In order to minimize antibody internalization, 0.05% sodium azide was used in the incubation buffer and all work was performed on ice. The CD137 antibodies were detected using PE-conjugated anti-hIgG antibody (109-115-098, Jackson Immunoresearch laboratories), incubated for 30 min at 4° C. Directly after staining the cells were fixed with a paraformaldehyde solution (10× concentrate BD CellFIX, BD biosciences #340181). Cells were analyzed by flow cytometry using FACSVerse (BD Biosciences). The median fluorescence intensity (MFI) for each sample was determined and the dose response data was analysed using Graph Pad Prism.
(§2) MFI data was normalized for each antibody, where 0% is defined as the lowest value and 100% is the highest value in the dose titration for each antibody.

[2] = target: T2, cynomolgus CD137 on transfected CHO cells (CHO-cyCD137) (cynomolgus (Macaca fascicularis); human); assay: flow cytometry on CHO cells transfected with cynomolgus CD137, PE anti-hIgG detection, MFI normalised 0-100% for each antibody
T2 construct: extracellular domain;domain: transmembrane and intracellular part; also called cyno CD137
T2 sequence (P25942 other isoform, or with tags, fused parts or gaps): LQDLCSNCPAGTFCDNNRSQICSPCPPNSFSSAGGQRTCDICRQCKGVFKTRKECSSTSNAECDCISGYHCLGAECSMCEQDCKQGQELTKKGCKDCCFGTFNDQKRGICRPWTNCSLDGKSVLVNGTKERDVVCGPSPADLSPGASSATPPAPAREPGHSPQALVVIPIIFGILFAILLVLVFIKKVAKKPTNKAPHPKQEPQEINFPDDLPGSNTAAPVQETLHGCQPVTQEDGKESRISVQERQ
Description: as §1, §2

[3] = target: T2, cynomolgus CD137 on transfected CHO …; assay: flow cytometry; EC50 on CHO-cyCD137 against EC50 on CHO-huCD137
Description: as §1, §2

[4] = target: T3, Human CD137 (R&D systems) (human, UniProt Q07011 24-186, limits assumed); assay: SPR (Biacore), human CD137 immobilised, bivalent antibody as analyte, 1:1 Langmuir model
T3 construct: also called CD137 coated on the chip surface
T3 sequence (Q07011 24-186 limits assumed): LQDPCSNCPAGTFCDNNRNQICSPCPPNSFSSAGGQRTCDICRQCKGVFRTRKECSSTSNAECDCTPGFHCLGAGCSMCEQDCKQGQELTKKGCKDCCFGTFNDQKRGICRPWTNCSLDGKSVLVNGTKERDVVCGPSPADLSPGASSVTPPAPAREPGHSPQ
Description: Human CD137 (R&D systems) was immobilized to the Biacore™ sensor chip, CMS, using conventional amine coupling. […] The association was followed for 5 minutes and the dissociation for 15 minutes. Regeneration was performed twice using 10 mM Glycine pH 1.7 for 30 seconds. The kinetic parameters and the affinity constants were calculated using 1:1 Langmuir model.
The affinities of the antibodies were in the nanomolar to sub-nanomolar range (Table 3) measured using bivalent antibodies flowed over CD137 coated on the chip surface.

[5] = target: T1, human CD137 on transfected CHO cells …; assay: flow cytometry on CHO-huCD137 cells; 95% confidence interval of the EC50
Description: as §1, §2

[6] = target: T2, cynomolgus CD137 on transfected CHO …; assay: flow cytometry on CHO-cyCD137 cells; 95% confidence interval of the EC50
[7] = target: T4, 1553: Human CD137 with mouse domains 3A, 3B and 4A (aa 87-133) (human; mouse, UniProt P20334 86-133); assay: flow cytometry on transfected 293-F cells, human/mouse CD137 chimera
T4 construct: domain: domains 3A, 3B and 4A (aa 87-133); Human/mouse chimera transiently expressed on FreeStyle 293-F cells
T4 sequence (P20334 other isoform, or with tags, fused parts or gaps limits assumed): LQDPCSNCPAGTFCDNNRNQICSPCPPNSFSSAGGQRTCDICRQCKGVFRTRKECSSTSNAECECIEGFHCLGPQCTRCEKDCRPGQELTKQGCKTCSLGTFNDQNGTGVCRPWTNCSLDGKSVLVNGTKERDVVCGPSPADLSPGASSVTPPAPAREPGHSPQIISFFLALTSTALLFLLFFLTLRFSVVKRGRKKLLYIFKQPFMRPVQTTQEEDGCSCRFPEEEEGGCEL
Description: (§3) The ability of each antibody to bind to a panel of human/mouse CD137 chimeras expressed on the surface of transfected cells was analyzed by flow cytometry.
(§4) The chimeras were designed by exchanging domains or modules of the human CD137 with the corresponding mouse domain. Genes of CD137 human/mouse chimeras were synthesized (GenScript) and constructs cloned into pcDNA3.1 vector (Invitrogen) and transiently transfected into FreeStyle 293-F cells (Invitrogen). The transfected cells were incubated with CD137 antibodies and control antibodies, followed by incubation with anti-human IgG-PE (Jackson Immunoresearch) for detection and analyzed with FACS Verse (BD Biosciences). Binding to the different chimeric constructs was calculated as relative MFI compared to the binding of the isotype control, followed by normalization to the full-length human CD137 construct to minimize the effect of affinity differences between individual antibodies.

[8] = target: T5, 1551: Human CD137 with mouse domains 2A, 2B and 3A (aa 47-96) (human; mouse, UniProt P20334 46-95); assay: as above
T5 construct: domain: domains 2A, 2B and 3A (aa 47-96); Human/mouse chimera transiently expressed on FreeStyle 293-F cells
T5 sequence (P20334 other isoform, or with tags, fused parts or gaps limits assumed): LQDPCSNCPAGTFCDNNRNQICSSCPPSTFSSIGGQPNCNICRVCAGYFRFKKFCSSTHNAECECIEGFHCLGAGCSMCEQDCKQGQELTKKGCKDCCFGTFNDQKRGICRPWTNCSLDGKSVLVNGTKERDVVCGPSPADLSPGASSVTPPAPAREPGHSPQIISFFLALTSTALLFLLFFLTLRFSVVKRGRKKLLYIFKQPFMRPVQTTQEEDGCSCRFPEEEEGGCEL
Description: as §3, §4

[9] = target: T6, 1555: Human CD137 with mouse domains 1 and 4B and region of unknown function (aa 24-46 and aa 139-186) (human; mouse, UniProt P20334 24-45; P20334 139-185); assay: as above
T6 construct: Human/mouse chimera transiently expressed on FreeStyle 293-F cells
T6 sequence (P20334 other isoform, or with tags, fused parts or gaps limits assumed): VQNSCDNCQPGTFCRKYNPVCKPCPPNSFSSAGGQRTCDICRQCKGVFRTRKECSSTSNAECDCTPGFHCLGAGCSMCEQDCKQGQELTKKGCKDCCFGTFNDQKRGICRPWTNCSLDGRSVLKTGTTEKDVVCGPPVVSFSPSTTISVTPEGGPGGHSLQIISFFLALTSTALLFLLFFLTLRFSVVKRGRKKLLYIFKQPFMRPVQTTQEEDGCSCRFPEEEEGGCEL
Description: as §3, §4

[10] = target: T7, 1550: Human CD137 with mouse domains 1, 2A and 2B (aa 24-86) (human; mouse, UniProt P20334 24-85); assay: as above
T7 construct: domain: domains 1, 2A and 2B (aa 24-86); Human/mouse chimera transiently expressed on FreeStyle 293-F cells; Limits of the human pieces are worked out from the printed aa range
T7 sequence (P20334 other isoform, or with tags, fused parts or gaps limits assumed): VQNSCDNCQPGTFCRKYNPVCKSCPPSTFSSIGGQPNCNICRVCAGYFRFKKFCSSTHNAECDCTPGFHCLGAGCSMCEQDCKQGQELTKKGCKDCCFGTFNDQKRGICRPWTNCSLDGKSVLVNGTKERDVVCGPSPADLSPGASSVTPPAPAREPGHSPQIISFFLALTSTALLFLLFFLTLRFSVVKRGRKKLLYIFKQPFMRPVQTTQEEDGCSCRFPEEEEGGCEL
Description: as §3, §4

[11] = target: T8, 1554: Human CD137 with mouse domains 3B, 4A and 4B (aa 97-159) (human; mouse, UniProt P20334 96-159); assay: as above
T8 construct: domain: domains 3B, 4A and 4B (aa 97-159); Human/mouse chimera transiently expressed on FreeStyle 293-F cells
T8 sequence (P20334 other isoform, or with tags, fused parts or gaps limits assumed): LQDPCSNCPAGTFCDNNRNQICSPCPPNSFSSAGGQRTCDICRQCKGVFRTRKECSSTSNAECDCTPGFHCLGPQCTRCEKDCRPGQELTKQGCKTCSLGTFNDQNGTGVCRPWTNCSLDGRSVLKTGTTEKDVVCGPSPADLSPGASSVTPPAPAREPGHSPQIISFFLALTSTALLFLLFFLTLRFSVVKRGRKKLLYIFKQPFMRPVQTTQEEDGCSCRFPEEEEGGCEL
Description: as §3, §4

[12] = target: T9, 1552: Human CD137 with mouse domains 2B, 3A and 3B (aa 64-118) (human; mouse, UniProt P20334 63-117); assay: as above
T9 construct: Human/mouse chimera transiently expressed on FreeStyle 293-F cells
T9 sequence (P20334 other isoform, or with tags, fused parts or gaps limits assumed): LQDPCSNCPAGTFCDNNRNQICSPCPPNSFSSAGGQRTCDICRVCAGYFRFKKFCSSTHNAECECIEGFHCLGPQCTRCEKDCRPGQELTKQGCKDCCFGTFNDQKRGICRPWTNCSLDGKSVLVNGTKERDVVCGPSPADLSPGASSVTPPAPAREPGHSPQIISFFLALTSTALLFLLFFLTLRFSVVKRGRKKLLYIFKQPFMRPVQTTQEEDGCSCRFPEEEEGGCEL
Description: as §3, §4

T1 sequence (P25942 other isoform, or with tags, fused parts or gaps limits assumed): as the sequence (P25942 other isoform, or with tags, fused parts or gaps) above, with L4P, S19N, K50R, I66T, S67P, Y69F, E75G, A149V counted along it

EC50 (read off the curve) [1]: ~0.2 µg/mL | EC50 (read off the curve) [2]: ~0.1 µg/mL | Ratio, cyno:human [3]: 0.63 | Kd [4]: 641 pM | koff [4]: 0.00118 s⁻¹ | kon [4]: 1.85e+06 M⁻¹ s⁻¹ | EC50 [5]: 0.17 to 0.26 µg/mL | EC50 [6]: 0.12 to 0.16 µg/mL | MFI antibody/isotype control, normalized to full-length human CD137 [7]: 0.91 | MFI antibody/isotype control, normalized to full-length human CD137 [8]: 0.1 | MFI antibody/isotype control, normalized to full-length human CD137 [9]: 0.35 | MFI antibody/isotype control, normalized to full-length human CD137 [10]: 0.11 | MFI antibody/isotype control, normalized to full-length human CD137 [11]: 0.85 | MFI antibody/isotype control, normalized to full-length human CD137 [12]: 0.25
B1: 1630/1631 (antibody, human IgG4 S228P, kappa, V domains shown)
VH: EVQLLESGGGLVQPGGSLRLSCAASGFTFGYSYMSWVRQAPGKGLEWVSSIGSGSSYTYYADSVKGRFTISRDNSKNTLYLQMNSLRAEDTAVYYCARVYSSPGIDYWGQGTLVTVSS
VL: DIQMTQSPSSLSASVGDRVTITCRASQSISSYLNWYQQKPGKAPKLLIYAASSLQSGVPSRFSGSGSGTDFTLTISSLQPEDFATYYCQQYYTWVPFTFGQGTKLEIKR
notes: the format in each assay is not restated
